Experimental data as given in the nanobody polyreactivity screen of Harvey et al. (2022).

Experiment: yeast display, Sf9 membrane polyspecificity reagent, FACS + sequencing; frameworks hold sequencing errors
Method in brief: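 Using colony PCR, genes from sorted yeast display clones were amplified, then sequenced on MiSeq at 2 × 250 and filtered by CDR length. The clones had been stained with 10% biotinylated, detergent-solubilized Sf9 membrane reagent for 1 hour at 4 °C and sorted by FACS into low and high (top ~1%) gates on anti-HA and streptavidin fluorescence. Polyreactivity labels come from the gate of origin.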

Sequence	polyreactivity (PSR sort gate)
QVQLVESGGGLVQAGGSLRLSCAASGSIFVSNAMGWYRQAPGKERELVAAISSGGSTNYADSVKGRFTISRDNAKNTVYLQMNSLKPEDTAVYYCAARYYGYAGRFDYWGQGTQVTVSS	low polyreactivity
QVQLVESGGGLVQAGGSLRLSCAASGSIFVSNARVWYRQAPGKERELVAANTSSGSTDYADSVKGRFTISRANAKNTVYLQMNSLKPEDTAVYYCAAESYHTFFLWSLNDSWGQGTQVTVSS	low polyreactivity
QVQLVESGGGLVQAGGSLRLSCAASGSIFVSYTMGWYRQAPGKERELVAAITRSGGSTYYADSVKGRFTISRDNAKNTVYLQMNSLKPEDTAVYYCAAGTVDYRGYFEMYFWGQGTQVTVSS	low polyreactivity
QVQLVESGGGLVQAGGSLRLSCAASGSIFVSYTMGWYRQPPGKERELVAAISGGGASTYYADSVKGRFTISRDNAKNTVYLQMNSLKPEDTAVYYCNASRKRSYDYWGQGTQVTVSS	low polyreactivity
QVQLVESGGGLVQAGGSLRLSCAASGSIFVTNAMGWYRQAPGKERELVAAISNSGSSTYYADSVKGRFTISRDNAKNTVYLQMNSLKPEDTAVYYCAADWYGVTGSYYYWGQGTQVTVSS	high polyreactivity
QVQLVESGGGLVQAGGSLRLSCAASGSIFVTNAMGWYRQAPGKERELVAAISWRGGSTYYADSVKGRFTISRDNAKNTVYLQMNSLKPEDTAVYYCNTYHPYWGSGFDYWGQGTQVTVSS	low polyreactivity
QVQLVESGGGLVQAGGSLRLSCAASGSIFVTNAMGWYRQAPGKERELVAAISWRGGSTYYADSVKGRFTISRDNAKNTVYLQMNSLKPEDTGVYDCNTYHPYWGSGFDYWGLGTQVTVSS	low polyreactivity
QVQLVESGGGLVQAGGSLRLSCAASGSIFVTNAMGWYRQAPGKEREMVATITSSGSTNYADSVKGRFTISRDNAKNTVYLQMNSLKPEDTAVYYCAKRWLWYYWGFAPSDYWGQGTQVTVSS	low polyreactivity
QVQLVESGGGLVQAGGSLRLSCAASGSIFVTNGMGWYRQAPGKERELVAVISWGGGNTYYADSVKGRFTISRDNAKNTVYLLMNNLKPEDTAVYYCAVELYWDYYFTYGYWGKGTQVTVSS	low polyreactivity
QVQLVESGGGLVQAGGSLRLSCAASGSIFVTYAMGGYRQAPGKERELVAAISTSGGSTYADSVKGRFTISRDNAKNTVYLQMNSLKPEDTAVYYCNADDPGYAVPWYWFKFDYWGQGTQVTVSS	low polyreactivity
QVQLVESGGGLVQAGGSLRLSCAASGSIFVTYAMGLYRQAPGKERELVAAITSSDRTKYADSVKGRFTISRDNAKNTVYVQMHSLKPEDTAVYYGAKVVRTRYYGGYDYWGQVTQVTVSS	high polyreactivity
QVQLVESGGGLVQAGGSLRLSCAASGSIFVTYDMGWYRQAPGKERELVAGISGSGSTYYADSVKGRFTISRDNAKNTVYLQMNSLKPEDTAGYYCAAVWSRFLISYSTGWWFEYWGQGTQVTVSS	low polyreactivity
QVQLVESGGGLVQAGGSLRLSCAASGSIFVVYAMGWYRQAPGKARALVAAITSDDDTNYADSVKGRFTLSRDNAKNTVYLQMNSLKPEDTAVYYCAKEVWLAINTRTGYEVYYWGQGTQVTVTS	low polyreactivity
QVQLVESGGGLVQAGGSLRLSCAASGSIFVWNAMGWYRPAPGKERELVAAISYTDGSTYYADSVKGRFTISRDNAKNTVYLQMNSLKPVDTAVYYCAAAITPSYTGSEYDYWGQGTQVTVSS	low polyreactivity
QVQLVESGGGLVQAGGSLRLSCAASGSIFVWNAMGWYRQAPGKERELVAAITNIGGRTYYADSVKGRFTISRDNAKNTFYLQMNSLKPEDTAVYYCNVVVKGAWDYYPYDYWGQGTQVTVSS	high polyreactivity
QVQLVESGGGLVQAGGSLRLSCAASGSIFVWYAMGWYRQAPGKERELVARITSGGRTNYADSVKGRFTISRDNAKNTVYLQMNSLKPEDTAVYYCAAGRVSWSAYYYWGQGSQVTVSS	high polyreactivity
QVQLVESGGGLVQAGGSLRLSCAASGSIFVWYVMGWSRPAAGKERELVAAITWSAARTYYADSVKGRFTISRDNAKNTVYLQMNSLKPEDTAVYYCAADHVSYQPSSRIFDYWGQGTQVTVSS	low polyreactivity
QVQLVESGGGLVQAGGSLRLSCAASGSIFVWYVMGWYRQAPGKERELVAAITWSAARTYYADSVKGRFTISRDNAKNTVYLQMNSLKPADTAVYYCAADHVSYQPSSRIFDYWGHGTQVTVSS	low polyreactivity
QVQLVESGGGLVQAGGSLRLSCAASGSIFVYNAMAWYRPAPGKERELVAAISRGGRTYADSVKGRFTISRDNAKNTVYLQMNSLKPEDTAVYYCAAQGYYRSWYSRQGHYDYWGQGTQVTVSS	high polyreactivity
QVQLVESGGGLVQAGGSLRLSCAASGSIFVYNAMGWYRHAPGTERELVAAISRRGGSTYYADSVKGRFTISRDNAKNTVYLQMNSLKPEDTAVYYCAAFASATRYDYWGQGTQVTVSS	high polyreactivity
QVQLVESGGGLVQAGGSLRLSCAASGSIFVYNAMGWYRQAPGKERELVAAISWSGGRTYYADSVKGRFTISRDNAKNTVYIQMNSLKPEDTAVYYCAARGPTRVPYNYWGQGTQVTVSS	high polyreactivity
QVQLVESGGGLVQAGGSLRLSCAASGSIFVYNAMGWYRQAPGKERELVAGITFIGGSTYYADPVKGRFTISRDNAKNTVYLQMNSLKPEDTAVYYCNADVAPGIFYGYDSWGQGTQVTVSS	low polyreactivity

Sequence	polyreactivity (PSR sort gate)
QVQLVESGGGLVQAGGSLRLSCAASGSIFVYNAMGWYRQAPGKERELVASITWSGGRTYYADSVKGRFTISRDNAKNTVYLQMNSLKPEDTAVYYCAADSPRGYDYWGQGTQVTVSS	high polyreactivity
QVQLVESGGGLVQAGGSLRLSCAASGSIFVYNAMGWYRQAPRKETEMVAAITSTGRTYYADSVKGRFTISRDNAKNTVYLKMNSLKPEDTGVYYCAATYVWSTLQYKTWQKLTHYGYWGQGTQVTVSS	high polyreactivity
QVQLVESGGGLVQAGGSLRLSCAASGSIFVYYAMGWYRQAPGKERELVAAISSGDGTNYADSVKGRFTISRDNAKNTVYLQMNSLKPEDTAVYYCNADLDSGYGSYDYWGQGTEVTVSS	low polyreactivity
QVQLVESGGGLVQAGGSLRLSCAASGSIFVYYAMGWYRQAPGKERELVATIRGSGGSTYYADSVKGRFTISRDNAKNTVYLQMNSLKPEDTAVYYCAATIKYGGRWYGSWGQGTQVTVSS	high polyreactivity
QVQLVESGGGLVQAGGSLRLSCAASGSIFVYYAMGWYRQSPGKERELVAAINWSGGSTYYADSVKGRFTISRDNAKKTVYLQMNSLKPEDSAVYYCNAYLSPYDYDYWGQGTQVTLSS	low polyreactivity
QVQLVESGGGLVQAGGSLRLSCAASGSIFVYYGMGWYRQAPGKERELVAAISSGGSTHYADSVKGRFTISRDNAKNTVYFQMNSLKPEDTAVYYCAADRFFWLRSYPRYYYWGQGTQVTVSS	low polyreactivity
QVQLVESGGGLVQAGGSLRLSCAASGSIFVYYTMGWYRQAPGKERELVAAISISGTSTYYADSVKGRFTNSRDNAKNTVYLQMNSLKPEDTAVYYCAADTYYGEDYWGQGTQVTVSS	low polyreactivity
QVQLVESGGGLVQAGGSLRLSCAASGSIFVYYVMGWYRQAPGKDRELVAAINSDGDGTYYADSVKGRFTISRDNAKNTVYLQMNSLKPEDTAVYYCNALNPKSYDYWGQGTQVTVSS	low polyreactivity
QVQLVESGGGLVQAGGSLRLSCAASGSIFWANAMGWYRQAPGKERELVAAISSSGGRTYYADSVKGRFTISRDNAKNTVYLQMNSLKPEDTAVYYCNKLRLAYYEQGDYWGQGTQVTVSS	high polyreactivity
QVQLVESGGGLVQAGGSLRLSCAASGSIFWFNAMGWYRQAPGKEREFVASISRSGGTTYYADSVKGRFTISRDNAKNTVYLQMNSLKPEDTAVYYCNARAYGNGLGTGYFGKHRYDYWGQGTQVTVSS	low polyreactivity
QVQLVESGGGLVQAGGSLRLSCAASGSIFWGNAMGWYRQAPGKERELVATISWSAGSTYYADSVKGRFTISRDNAMNTVYLQMNSLKPDDTAVYYCATDVRHSTLYYYWGQGTQVTVSS	low polyreactivity
QVQLVESGGGLVQAGGSLRLSCAASGSIFWGYAMGWYRQAPGKERELVATIRNRGGSTYYADSVKGRFTISRDNAKNTVYLQMNSLKPEDTAVYYCAARFPHRHYLLYTYDYWGQGTQVTVSS	low polyreactivity
QVQLVESGGGLVQAGGSLRLSCAASGSIFWKYAMGWYRQAPGKERELVAAISRSSSTTYYADSVKGRFTISRDNAKNTVYLQMNSLKPEDTAVYYCAADWRTKGYDSLGQGTQVTVSS	high polyreactivity
QVQLVESGGGLVQAGGSLRLSCAASGSIFWLYAMGCYRQAPGKERELVAGISQNGGSTTYADSVKGRFTISRDNAKNTVYFQMNSLKPEDTAVYYCAAKRYGPFKYGYWGQGTQVTVSS	high polyreactivity
QVQLVESGGGLVQAGGSLRLSCAASGSIFWLYAMGWYRQAPGKERELVAAIDSGDSTKYADSVKGRFTISRDNAKTTVYLQMNSLKPEDTAVYYCNASRRYHVRAPYDYWGQGTQVTLSS	low polyreactivity
QVQLVESGGGLVQAGGSLRLSCAASGSIFWLYAMGWYRQAPGKERELVAAITWSGGRTYYADSVKGRFTISRDTAKNTVYLQMNSLKPEDTAVYYCARRQWPWYSNPARGGKYDYWGQGTQVTVSS	low polyreactivity
QVQLVESGGGLVQAGGSLRLSCAASGSIFWNNAMGWYRQAPGKERELVAAISKSGTRTYYADSVKGRFTISRDNAKNTFYLQMNSLKPEDTAVYYCAKDPYGRLQPRPRFGYWGQGTQVTVSS	high polyreactivity
QVQLVESGGGLVQAGGSLRLSCAASGSIFWNYAMGWYRQAPGKERELVASITSGGSTNYADSVKGRFTISRDNEKNTVYLQMNSLKQEDTAVYSCNTDDDSSYTGYYSWGQGTQVTVSS	low polyreactivity
QVQLVESGGGLVQAGGSLRLSCAASGSIFWPNAMGWYRQAPGKERELVASITRAGSTNYADSVKGRFTISRDNAQNTVYLQMNSLKPEDTAVYYCAAYFWGGYNYWGQGTQVTVSS	low polyreactivity
QVQLVESGGGLVQAGGSLRLSCAASGSIFWPNVMGWYRQAPGKDRELVAAIRSDGSTYYADSVKGRFTISRDNAKNTVYLQMNSLKPEDAAVYYCATKFFRQTIYRAKYNYWGQGTQVTVSS	low polyreactivity
QVQLVESGGGLVQAGGSLRLSCAASGSIFWPYAKGWYRQAPGKERELVAAISSSGTSTYYADSVKGRFTISRDNAKNTVYLQMNSLKPEDTAVYYCAKELFTYPYEYWGQGTQVTVSS	low polyreactivity
